{"source": "paper PMC11648230", "about": "“Structure–function analysis of tRNA t6A-catalysis, assembly, and thermostability of Aquifex aeolicus TsaD2B2 tetramer in complex with TsaE”", "binders": {"B1": {"name": "E. coli tRNALysUUU (structured_RNA)", "RNA": "GGGUCGUUAGCUCAGUUGGUAGAGCAGUUGACUUUUAAUCAAUUGGUCGCAGGUUCGAAUCCUGCACGACCCACCA"}, "B2": {"name": "A. aeolicus tRNALysUUU (structured_RNA)", "RNA": "GAGCCGGUAGCUCAGUUGGUAGAGCAACGGCCUUUUAAGCCGUGGGUCGCGGGUUCGAGUCCCGCCCGGCUCACCA"}, "B3": {"name": "T. maritima tRNALysUUU (structured_RNA)", "RNA": "GACCCGGUAGCUCAGCAGGCAGAGCACCUGACUUUUAAUCAGGGGGUCGUGGGUUCGAAUCCCACCCGGGUCACCA"}}, "key": {"[1]": {"target": "EcTsaD;EcTsaB (Escherichia coli;Escherichia coli, UniProt P05852;P76256 1-337;1-231, |)", "sequence (P05852 whole entry, chain 1 of 2)": "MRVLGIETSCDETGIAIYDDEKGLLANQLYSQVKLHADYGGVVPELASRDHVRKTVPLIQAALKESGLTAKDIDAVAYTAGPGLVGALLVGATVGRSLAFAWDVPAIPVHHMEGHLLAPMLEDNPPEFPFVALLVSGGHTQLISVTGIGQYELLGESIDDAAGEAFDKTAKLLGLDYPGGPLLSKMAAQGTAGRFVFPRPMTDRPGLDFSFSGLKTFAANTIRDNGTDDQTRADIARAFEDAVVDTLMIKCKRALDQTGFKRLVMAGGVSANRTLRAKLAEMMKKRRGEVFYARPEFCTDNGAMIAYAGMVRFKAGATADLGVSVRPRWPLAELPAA", "sequence (P76256 whole entry, chain 2 of 2)": "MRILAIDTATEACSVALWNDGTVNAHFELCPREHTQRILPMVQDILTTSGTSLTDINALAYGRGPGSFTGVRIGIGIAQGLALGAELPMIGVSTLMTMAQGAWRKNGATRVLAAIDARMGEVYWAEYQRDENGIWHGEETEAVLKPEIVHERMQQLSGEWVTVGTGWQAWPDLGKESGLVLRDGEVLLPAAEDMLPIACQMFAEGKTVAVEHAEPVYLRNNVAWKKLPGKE", "experiment": "EMSA; TsaDB dimer; EMSA: 1 uM 6-FAM-tRNA, 0-100 uM protein, 2% agarose, 20 mM Tris-HCl/50 mM glycine pH 8.5 running buffer (loading buffer for native gels 20 mM Tris-HCl pH 7.5, 300 mM NaCl, 25% glycerol); MST: 10 nM tRNA, 20 mM PBS pH 7.5, 300 mM NaCl, 0.05% Tween 20, 25 C", "settings": "protein: recombinant;recombinant; tags: ;; copies: 1;1; tRNA cloverleaf"}, "[2]": {"target": "AaTsaD;AaTsaB (Aquifex aeolicus;Aquifex aeolicus, UniProt O66986;O66494 1-335;1-200, |)", "sequence (O66986 whole entry, chain 1 of 2)": "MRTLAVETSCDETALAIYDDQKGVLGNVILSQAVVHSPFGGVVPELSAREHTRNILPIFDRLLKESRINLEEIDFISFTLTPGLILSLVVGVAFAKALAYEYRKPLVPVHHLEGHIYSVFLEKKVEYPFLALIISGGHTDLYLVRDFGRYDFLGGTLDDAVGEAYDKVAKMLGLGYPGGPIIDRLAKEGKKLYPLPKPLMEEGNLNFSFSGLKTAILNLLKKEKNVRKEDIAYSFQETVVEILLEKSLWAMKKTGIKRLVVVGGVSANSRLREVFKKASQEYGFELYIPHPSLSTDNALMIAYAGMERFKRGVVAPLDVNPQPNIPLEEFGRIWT", "sequence (chain, as listed by the source |, chain 2 of 2)": "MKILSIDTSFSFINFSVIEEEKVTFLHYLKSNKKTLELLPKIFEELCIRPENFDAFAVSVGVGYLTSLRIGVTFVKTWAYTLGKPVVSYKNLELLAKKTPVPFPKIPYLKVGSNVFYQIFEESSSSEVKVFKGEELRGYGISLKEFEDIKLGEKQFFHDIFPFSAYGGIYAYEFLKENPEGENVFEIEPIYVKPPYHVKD", "experiment": "MST; not saturated at 100 uM; stronger than AaTsaDB; EMSA: 1 uM 6-FAM-tRNA, 0-100 uM protein, 2% agarose, 20 mM Tris-HCl/50 mM glycine pH 8.5 running buffer (loading buffer for native gels 20 mM Tris-HCl pH 7.5, 300 mM NaCl, 25% glycerol); MST: 10 nM tRNA, 20 mM PBS pH 7.5, 300 mM NaCl, 0.05% Tween 20, 25 C", "settings": "protein: recombinant;recombinant; tags: ;C-terminal 6His; chain copies: 2;2; label: 5' 6-FAM; tRNA cloverleaf"}, "[3]": {"target": "AaTsaD;AaTsaBmut (Aquifex aeolicus;Aquifex aeolicus, UniProt O66986;O66494 1-335;1-200+=WEKKKRG, |internal_change)", "sequence (O66986 whole entry, change not shown, chain 1 of 2)": "as the sequence (O66986 whole entry, chain 1 of 2) above", "sequence (chain, as listed by the source |, chain 2 of 2)": "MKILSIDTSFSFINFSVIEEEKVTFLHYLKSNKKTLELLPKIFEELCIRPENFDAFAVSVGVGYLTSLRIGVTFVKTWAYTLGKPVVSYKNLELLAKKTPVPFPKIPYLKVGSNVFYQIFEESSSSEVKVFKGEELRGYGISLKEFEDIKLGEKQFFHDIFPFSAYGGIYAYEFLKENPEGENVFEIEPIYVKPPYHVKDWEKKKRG", "experiment": "EMSA; TsaD2Bmut2 tetramer; EMSA: 1 uM 6-FAM-tRNA, 0-100 uM protein, 2% agarose, 20 mM Tris-HCl/50 mM glycine pH 8.5 running buffer (loading buffer for native gels 20 mM Tris-HCl pH 7.5, 300 mM NaCl, 25% glycerol); MST: 10 nM tRNA, 20 mM PBS pH 7.5, 300 mM NaCl, 0.05% Tween 20, 25 C", "settings": "protein: recombinant;recombinant; tags: ;C-terminal 6His; chain copies: 2;2; label: 5' 6-FAM; tRNA cloverleaf"}, "[4]": {"target": "AaTsaD del34-38;AaTsaB (Aquifex aeolicus;Aquifex aeolicus, UniProt O66986;O66494 1-335;1-200, del34-38|)", "sequence (O66986 other isoform, or with tags, fused parts or gaps del34-38|, chain 1 of 2)": "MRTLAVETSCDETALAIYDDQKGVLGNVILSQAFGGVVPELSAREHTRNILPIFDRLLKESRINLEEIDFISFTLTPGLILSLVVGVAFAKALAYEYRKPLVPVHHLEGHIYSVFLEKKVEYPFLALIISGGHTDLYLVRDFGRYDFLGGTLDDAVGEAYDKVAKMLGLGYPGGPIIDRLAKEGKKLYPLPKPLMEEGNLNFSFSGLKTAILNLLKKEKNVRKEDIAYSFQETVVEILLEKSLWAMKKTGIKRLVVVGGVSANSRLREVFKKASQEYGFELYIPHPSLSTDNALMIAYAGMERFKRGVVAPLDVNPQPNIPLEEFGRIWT", "experiment": "EMSA; tighter than TsaD2B2; EMSA: 1 uM 6-FAM-tRNA, 0-100 uM protein, 2% agarose, 20 mM Tris-HCl/50 mM glycine pH 8.5 running buffer (loading buffer for native gels 20 mM Tris-HCl pH 7.5, 300 mM NaCl, 25% glycerol); MST: 10 nM tRNA, 20 mM PBS pH 7.5, 300 mM NaCl, 0.05% Tween 20, 25 C", "settings": "protein: recombinant;recombinant; tags: ;C-terminal 6His; chain copies: 2;2; label: 5' 6-FAM; tRNA cloverleaf"}, "[5]": {"target": "TmTsaD;TmTsaB (Thermotoga maritima;Thermotoga maritima, UniProt Q9WXZ2;Q9WZX7 1-327;1-206, |)", "sequence (Q9WXZ2 whole entry, chain 1 of 2)": "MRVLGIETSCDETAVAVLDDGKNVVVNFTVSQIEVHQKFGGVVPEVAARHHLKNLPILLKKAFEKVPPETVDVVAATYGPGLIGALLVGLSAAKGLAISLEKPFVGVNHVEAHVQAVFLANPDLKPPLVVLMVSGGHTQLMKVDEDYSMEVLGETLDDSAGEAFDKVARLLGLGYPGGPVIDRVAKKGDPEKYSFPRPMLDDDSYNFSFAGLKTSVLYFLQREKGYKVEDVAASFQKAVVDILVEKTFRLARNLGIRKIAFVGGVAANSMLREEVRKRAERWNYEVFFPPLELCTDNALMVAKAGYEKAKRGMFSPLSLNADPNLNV", "sequence (Q9WZX7 whole entry, chain 2 of 2)": "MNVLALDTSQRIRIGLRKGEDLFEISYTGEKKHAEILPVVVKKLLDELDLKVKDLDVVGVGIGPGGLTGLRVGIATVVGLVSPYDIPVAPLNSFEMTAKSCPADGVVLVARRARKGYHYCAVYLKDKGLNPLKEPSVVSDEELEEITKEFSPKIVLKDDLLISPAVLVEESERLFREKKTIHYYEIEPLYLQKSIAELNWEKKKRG", "experiment": "EMSA; TsaD2B2 tetramer; EMSA: 1 uM 6-FAM-tRNA, 0-100 uM protein, 2% agarose, 20 mM Tris-HCl/50 mM glycine pH 8.5 running buffer (loading buffer for native gels 20 mM Tris-HCl pH 7.5, 300 mM NaCl, 25% glycerol); MST: 10 nM tRNA, 20 mM PBS pH 7.5, 300 mM NaCl, 0.05% Tween 20, 25 C", "settings": "protein: recombinant;recombinant; tags: ;; chain copies: 2;2; label: 5' 6-FAM; tRNA cloverleaf"}, "[6]": {"target": "TmTsaD;TmTsaB dimer-interface mutant (Thermotoga maritima;Thermotoga maritima, UniProt Q9WXZ2;Q9WZX7 1-327;1-206, |E20A;D21A;L22A;E24A;S26A;Y27A;T28A;E30A;K31A)", "sequence (Q9WXZ2 whole entry, stated change not applied, chain 1 of 2)": "as the sequence (Q9WXZ2 whole entry, chain 1 of 2) above", "sequence (Q9WZX7 whole entry E20A/D21A/L22A/E24A/S26A/Y27A/T28A/E30A/K31A, chain 2 of 2)": "as the sequence (Q9WZX7 whole entry, chain 2 of 2) above, with E20A, D21A, L22A, E24A, S26A, Y27A, T28A, E30A, K31A counted along it", "experiment": "EMSA; TsaDB dimer; EMSA: 1 uM 6-FAM-tRNA, 0-100 uM protein, 2% agarose, 20 mM Tris-HCl/50 mM glycine pH 8.5 running buffer (loading buffer for native gels 20 mM Tris-HCl pH 7.5, 300 mM NaCl, 25% glycerol); MST: 10 nM tRNA, 20 mM PBS pH 7.5, 300 mM NaCl, 0.05% Tween 20, 25 C", "settings": "protein: recombinant;recombinant; tags: ;; copies: 1;1; label: 5' 6-FAM; tRNA cloverleaf"}}, "data": [{"binder": "B1", "values": [{"measurement": "binding result", "setting": "[1]", "result": "no binding"}]}, {"binder": "B2", "values": [{"measurement": "binding result", "setting": "[2]", "result": "binds"}, {"measurement": "Kd", "setting": "[3]", "result": "~1160", "unit": "nM"}, {"measurement": "binding result", "setting": "[4]", "result": "binds"}]}, {"binder": "B3", "values": [{"measurement": "Kd", "setting": "[5]", "result": 1200, "unit": "nM"}, {"measurement": "Kd", "setting": "[6]", "result": 1720, "unit": "nM"}]}]}
